This is an account of results in patent JP2018058812A.

The test deals with バキュロウイルスを用いて作製したFlagタグ融合インフルエンザウィルスH1N1由来のリコンビナントヌクレオプロテイン(NP)タンパク質 (influenza A virus H1N1).

Broadly, the Kd is the equilibrium constant for the complex coming apart.

B1: 配列番号:08により表されるアミノ酸配列からなるVHH抗体 (VHH)
VHH: QVQLVESGGGLVQAGGSLRLSCAASRTIFNPNVMGWYRQAPGKQRELVADISLSGSTNYADSVKGRFTISRDNAKNTMYLQMNSLKPEDTAVYYCNTNAISGAPGRYWGQGTQVTVSS
The molecule B1 registered a dissociation constant Kd of 236 pM.
